Data from article PMC10053369, “Recombinant Analogs of Sea Anemone Kunitz-Type Peptides Influence P2X7 Receptor Activity in Neuro-2a Cells” (Marine Drugs, 2023).
Positions of bridges follow the written chain, without caps; N, C: chain ends. No end group written: not given here.

Legend:
[1] = molecular target: T1, hP2X7 (47-334 a.a., extracellular domain, 36.8 kDa) (human) (UniProt Q99572)
T1 sequence: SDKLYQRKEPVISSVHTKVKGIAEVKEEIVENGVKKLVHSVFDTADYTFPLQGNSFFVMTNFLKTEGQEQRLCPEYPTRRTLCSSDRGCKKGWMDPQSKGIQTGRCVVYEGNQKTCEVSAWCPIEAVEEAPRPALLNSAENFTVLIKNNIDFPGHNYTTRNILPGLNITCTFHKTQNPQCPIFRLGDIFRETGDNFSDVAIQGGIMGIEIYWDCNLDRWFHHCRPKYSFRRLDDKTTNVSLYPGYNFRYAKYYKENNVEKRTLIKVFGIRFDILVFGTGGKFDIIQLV

[2] = molecular target: T1, hP2X7 (47-334 a.a., extracellular domain, 36.8 kDa) (human); remark: listed apart in the source
[3] = tested on: cultured neurons of the dorsal horn of the spinal cord; conditions: cited from earlier work
Excerpt: Activated P2X7 has also been reported to alter reactive oxygen species (ROS) in microglia/macrophages as was shown, for example, in primary rat microglial cells. In cultured neurons of the dorsal horn of the spinal ...

Neuro-2a cells [4] = assay: [Ca2+]i in Ca2+-free medium (Fluo-8 AM); type: cell-based, mouse; conditions: for [Ca2+]i in Ca-free medium: ionomycin 10 μM in the presence of ATP 1 mM, or BHQ 50 μM, n = 6
Experimental: (§1) Neuro-2a cells were seeded in 96-well plates at a density of 4 × 10^4 cells/well and incubated in DMEM for 24 h at 37 °C, 5% CO2. Then the cells were washed twice with culture medium and loaded with 5 μM Fluo-8 AM (Abcam, Cambridge, UK) dye and 1 μM Pluronic® F-127 (Sigma-Aldrich, St. Louis, MO, USA), and incubated for 40 min at 37 °C in HBSS: 140 mM NaCl, 5 mM KCl, 0.8 mM MgCl2, 2 mM CaCl2, 10 mM glucose, 10 mM HEPES, pH 7.4. Then the cells were washed two times with the same solution but without the fluorescent dye and treated with the studied peptides for 30 min at RT in the dark. In some experiments Ca^2+-free medium was used: 140 mM NaCl, 5 mM KCl, 0.8 mM MgCl2, 10 mM glucose, 10 mM HEPES, 5 mM EGTA, pH 7.4. ATP (1 mM final concentration) was added using a microinjector (20 μL/well) 10 s later the baseline recording and the readings were taken up to 50 s in 1 s intervals. The standard P2X7 inhibitor, A438079 (Sigma-Aldrich, St. Louis, MO, USA), was used as inhibitory control. Ionomycin (Sigma-Aldrich, St. Louis, MO, USA) and BHQ were used to generate a generic calcium signal in cells. 2,5,-di(t-butyl) hydroquinone (BHQ) was synthesized and kindly provided by Dr. Polonik S.N. (PIBOC FEBRAS). Fluo-8 was excited at 485 nm, and the emission at 520 nm was measured with a PHERAstar®FS plate reader (BMG LABTECH, Ortenberg, Germany). The data were processed by MARS Data Analysis v. 3.01R2 (BMG Labtech, Ortenberg, Germany). Mean values and standard error of peak height calcium were calculated.
The following supporting information can be downloaded at: https://www.mdpi.com/article/10.3390/md21030192/s1, Figure S1: The RP-HPLC elution profiles of Kunitz peptides: HCRG1 (a), HCRG2 (b), and HCRG7 (c), on a Jupiter C4 column (Phenomenex, USA), equilibrated by 0.1% TFA, in a gradient of acetonitrile concentration (0–70%) for 70 min at 1.5 mL/min. MALDI mass spectra of the average molecular weight of peptides are shown in the insert. Black solid lines accentuate fractions from which the peptides were isolated. Figure S2: 1H NMR spectra of HCRG1 (a) and HCRG7 (b). Figure S3. […]

P2X7 in Neuro-2a cells = assay: ATP-induced Ca2+ influx (Fluo-8 AM); type: cell-based, mouse; conditions: 1 mM ATP
Experimental: (§2) Neuro-2a neuroblastoma cells (ATCC® CCL-131™) were obtained from American Type Culture Collection (Manassas, VA, USA). The cells were cultivated in DMEM medium (BioloT, St. Petersburg, Russia) supplemented with 10% of fetal bovine serum (BioloT, St. Petersburg, Russia) and 1% penicillin/streptomycin (BioloT, St. Petersburg, Russia) at 37 °C and 5% CO2. Initially, cells were incubated in cultural flasks until sub-confluent (~80%). For testing, Neuro-2a cells were seeded in 96-well plates and experiments were started after 24 h.
as §1
(§3) All data were obtained in three independent replicates and calculated values were expressed as mean ± standard error of the mean (SEM). The Student’s t-test was performed using SigmaPlot 14.0 (Systat Software Inc., San Jose, CA, USA) to determine statistical significance.

Neuro-2a cells [5] = assay: Cytoprotection against ATP-induced cell death (MTT assay); type: cell-based, mouse; conditions: 4 mM ATP, 48 h
Experimental: as §2
The cytoprotective effect of peptides was assessed in Neuro-2a cells using the MTT assay. In brief, an aliquot (180μL) of cell suspension with a nominal cell density of 3 × 10^4 cells/well was dispensed into 96-well plates. The cells were incubated for 24 h in a humidified atmosphere containing 5% CO2 to allow cell attachment. At the end of the preincubation period, ATP (Sigma-Aldrich, St. Louis, MO, USA) was added to the cells at a concentration of 4 mM. Studied peptides were added to the cells at concentrations of 0.1, 1.0 or 10.0 μM for 1h prior to the addition of ATP. After incubation for 48 h at 37 °C cell viability was detected using the MTT as described previously. The standard P2X7 inhibitor, A438079 (Sigma-Aldrich, St. Louis, MO, USA), at a concentration of 10 μM was used as a positive control.
as §3

[6] = molecular target: T2, hP2X7 (47–334 a.a., extracellular domain, 36.8 kDa) (Homo sapiens, UniProt Q99572); assay: Surface plasmon resonance (Biacore 3000); type: binding; conditions: model: binding 1:1 (Langmuir), 25 °C, HBS-N pH 7.4, n = 3
T2 construct: hP2X7 (47–334 a.a., extracellular domain, 36.8 kDa); purchased Abbexa LTD, Cambridge, UK abx167020
T2 sequence (Q99572 47-334): T1 sequence
Experimental: SPR analysis was performed at 25 °C using a Biacore® 3000 optical biosensor (GE Healthcare, Chicago, IL, USA) and CM5 sensor chips. HBS-N (10 mM HEPES, 150 mM NaCl, pH 7.4) (Cytiva, Chicago, IL, USA) was used as a working buffer for the immobilization of hP2X7 (47–334 a.a., extracellular domain, 36.8 kDa) (abx167020 Abbexa LTD, Cambridge, UK). The carboxyl groups of the dextran biosensor chip were activated for 5 min by introducing a 1:1 mixture of 0.2 M 1-ethyl-3-(3-dimethylaminopropyl)carbodiimide hydrochloride (EDC) and 0.05 M N-hydroxysuccinimide (NHS) at a rate of 5 µL/min followed by a 1 min wash with HBS-N buffer at the same flow rate. Next, hP2X7 (15 μg/mL) in 10 mM sodium acetate (pH 5.0) was injected into the working channel of the biosensor for 10 min at a flow rate of 5 μL/min. The final level of immobilization was 12300 RU (12.3 ng of protein). The control channel without immobilized P2X7R was used to correct the effects of the nonspecific binding of analytes to the chip surface.
Lyophilized peptides were prepared as 100 μM stock solutions in HBS-N buffer. Experimental peptide samples were prepared in the range of 5–100 μM. The samples were injected through the channels of the biosensor (working and reference) at a flow rate of 10 μL/min for 6 min. The dissociation of the formed peptide/P2X7 complexes was recorded for at least 6 min from the moment of injection at the same flow rate after the injection of the sample. After each cycle of the biosensor, the bound analyte was removed by double injection of the regenerating solution (2 M NaCl, 1% CHAPS) at a flow rate of 30 μL/min for 30 s.
SPR sensorgrams were processed in Biacore 3000 Evaluation Software v.1.0 (GE Healthcare, Chicago, IL, USA) and BIAevaluation Software v. 4.1.1 (GE Healthcare, Chicago, IL, USA) using “1:1 binding (Langmuir)” and “two-state binding (conformational change)” data processing models.
The 1:1 (Langmuir) binding model is a 1:1 interaction model between a compound (C) and an immobilized protein (P) and is equivalent to the Langmuir isotherm for surface adsorption: C + P ↔ CP.
The two-state binding (conformational change) model describes the 1:1 binding of a compound (C) to an immobilized protein (P) followed by a conformational change in the complex (CP ↔ CP*). It is assumed that the conformationally changed complex can dissociate only by the reverse conformational change: C + P ↔ CP ↔ CP*. The final kinetic parameters were obtained from the models that best agree with the experimental curves for the minimum of the obtained value of chi2. The equations describing the models used are as follows: • (1) 1:1 (Langmuir) binding: Kd = koff/kon, where Kd is the equilibrium dissociation constant, koff is the dissociation rate constant, kon is the association rate constant. • (2) Reaction of two states (with conformational change): Kd = koff1/kon1 × (1 + kon2/koff2) − 1, where Kd is the equilibrium dissociation constant, koff1 is the dissociation rate constant, kon1 is the association rate constant, kon2 is the direct association rate constant for the CP ↔ transition CP*, koff2 is the inverse dissociation rate constant for the CP ↔ CP* transition.
The model describing the interaction was chosen according to the lowest chi2 parameter’s value. Chi2 is a measure of the average squared residual between the experimental data and the fitted curve.

[7] = molecular target: T1, hP2X7 (47-334 a.a., extracellular domain, 36.8 kDa) (human); assay: SPR; Biacore 3000, hP2X7 extracellular domain amine-coupled to a CM5 chip (12300 RU), peptides 5-100 uM injected as analytes at 10 uL/min for 6 min, 25 °C, HBS-N (10 mM HEPES, 150 mM NaCl, pH 7.4); fitted with 1:1 Langmuir or two-state (conformational change) model; parameters: kon2 (two-state model, step CP to CP*): unit not given here

Molecule: HCGS1.36 (peptide)
- 4 mM ATP-induced uptake of YO-PRO-1 by mouse Neuro-2a cells (P2X7 macropore), peptide 0.01-10 uM pre-incubated 10 min; dye uptake reduced to the printed percent [1]: 47.8%
- decrease of the 1 mM ATP-induced rise in intracellular Ca2+ (Fluo-8AM) in mouse Neuro-2a cells with endogenous P2X7, peptide 0.1-1 uM pre-incubated 30 min [2]: 53.9%

Molecule: CC(C)(C)[N+]([O-])=Cc1ccccc1 [N-tert-butyl-α-phenylnitrone]
- ATP or Bz-ATP-induced ROS production [3]: eliminated

Molecule: HCGS1.19 (peptide)
- 4 mM ATP-induced uptake of YO-PRO-1 by mouse Neuro-2a cells (P2X7 macropore), peptide 0.01-10 uM pre-incubated 10 min; dye uptake reduced to the printed percent [1]: 56.2%
- decrease of the 1 mM ATP-induced rise in intracellular Ca2+ (Fluo-8AM) in mouse Neuro-2a cells with endogenous P2X7, peptide 0.1-1 uM pre-incubated 30 min [2]: 54.8%

Molecule: Nc1ncnc2c1ncn2[C@@H]1O[C@H](COP(=O)(O)OP(=O)(O)OP(=O)(O)O)[C@@H](O)[C@H]1O [ATP, adenosine triphosphate, reference compound]
- [Ca2+]i response to ATP in Ca2+-free medium (Neuro-2a cells [4]; 1 mM ATP, Ca2+-free medium): did not cause an increase in [Ca^2+]I
- intracellular Ca2+ after ATP (P2X7 in Neuro-2a cells): strong sustained increase in [Ca^2+]I
- increase in percentage of dead cells vs cells without ATP (Neuro-2a cells [5]): up to 40%

Molecule: CC(C)(C)c1cc(O)c(C(C)(C)C)cc1O [BHQ, 2,5,-di(t-butyl) hydroquinone]
- [Ca2+]i in Ca-free medium (Neuro-2a cells [4]): led to a significant increase in [Ca^2+]I

Molecule: GSICLEPKVVGPCTAYLRRFYFDSETGKCTPFIYGGCEGNGNNFETLRACRAICRA (disulfide 4-54, 13-37, 29-50) [HCGS1.10]
- Kd [6]: 26.3 µM
- koff ([6]; same value printed under koff1 and koff2, average ± SD): (4.5 ± 0.52) × 10^−3 c^−1
- kon ([6]; same value printed under kon1 and kon2, average ± SD): (1.71 ± 0.19) × 10^2 mole^−1c^−1

Molecule: HCRG1 (peptide)
- koff1 (two-state model, step CP to C + P) [7]: 0.0437 c^−1
- koff2 (two-state model, step CP* to CP) [7]: 0.0015 c^−1
- kon1 (two-state model, step C + P to CP) [7]: 920 mole^−1c^−1
- kon2 (two-state model, step CP to CP*) [7]: 0.0085
- decrease of the 1 mM ATP-induced rise in intracellular Ca2+ (Fluo-8AM) in mouse Neuro-2a cells with endogenous P2X7, peptide 0.1-10 uM pre-incubated 30 min; value at 0.1 uM [2]: 57.5%

Molecule: C[C@H](CCC(=O)O)C[C@H](C)C[C@H](C)C(=O)/C=C(\O)[C@H](C)C[C@H](C)C/C=C/[C@@H](C)[C@@H](O)[C@@H](C)[C@@H](O)C[C@@H]1CC[C@@](C)([C@H]2CC[C@@](C)([C@@H](C)O)O2)O1 [ionomycin]
- [Ca2+]i in Ca-free medium (Neuro-2a cells [4]): led to a significant increase in [Ca^2+]I

Molecule: HCGS1.10 (peptide)
- decrease of the 1 mM ATP-induced rise in intracellular Ca2+ (Fluo-8AM) in mouse Neuro-2a cells with endogenous P2X7, peptide 0.1-10 uM pre-incubated 30 min; value at 0.1 uM [2]: 43.8%

B1: APHC3 (peptide)
chain: GSICLEPKVVGPCTAYFPRFYFNSETGKCTPFIYGGCEGNGNNFETLRACRGICRA
- decrease of the 1 mM ATP-induced rise in intracellular Ca2+ (Fluo-8AM) in mouse Neuro-2a cells with endogenous P2X7, peptide 0.1-10 uM pre-incubated 30 min; value at 0.1 uM [2]: 53.2%
